This is an account of results in article PMC7617694 (Molecular cell, 2025).

Holding throughout (experiment): cryo-EM structure
The target of assay [1] is Recombinant human CXCL5 (human).
The next assay concerns the target T1, Recombinant human CXCL1 (human, UniProt P09341 35-107).
T1 sequence: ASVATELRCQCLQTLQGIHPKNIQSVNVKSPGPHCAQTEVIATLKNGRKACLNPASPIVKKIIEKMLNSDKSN

The next assay has as its target T2, Recombinant human CXCL3 (human, UniProt P19876 35-107).
T2 sequence: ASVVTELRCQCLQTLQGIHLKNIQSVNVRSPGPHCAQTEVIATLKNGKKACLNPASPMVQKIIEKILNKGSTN

Another assay has as its target T3, Recombinant human CXCL2 (human, UniProt P19875 35-107).
T3 sequence: T1 sequence with S2P, V3L, P20L, N27K, R48Q, I58M, N68K, S69N, D70G

Where a chain is given by its changes, count along the chain named.

For orientation: stoichiometry N means a count of units in the complex or per binding partner. With Recombinant human CXCL5 (ligand), in assay [1], the stoichiometry N worked out at 2.

B1: C-X-C chemokine receptor 2 (CXCR2), FLAG-tagged, purified from Sf9 cells (receptor)
chain: ANFTPVNGSSGNQSVRLVTSSSMEDFNMESDSFEDFWKGEDLSNYSYSSTLPPFLLDAAPCEPESLEINKYFVVIIYALVFLLSLLGNSLVMLVILYSRVGRSVTDVYLLNLALADLLFALTLPIWAASKVNGWIFGTFLCKVVSLLKEVNFYSGILLLACISVDRYLAIVHATRTLTQKRYLVKFICLSIWGLSLLLALPVLLFRRTVYSSNVSPACYEDMGNNTANWRMLLRILPQSFGFIVPLLIMLFCYGFTLRTLFKAHMGQKHRAMRVIFAVVLIFLLCWLPYNLVLLADTLMRTQVIQETCERRNHIDRALDATEILGILHSCLNPLIYAFIGQKFRHGLLKILAIHGLISKDSLPKDSRPSFVGSSSGHTSTTL
With B1, the binding result in the assay with Recombinant human CXCL1, in the assay with Recombinant human CXCL3 and in the assay with Recombinant human CXCL2 was “binds” each time.
